In article doi:10.1101/2020.05.08.083964 (bioRxiv, 2020):

How the values were obtained:
[1] = molecular target: S-ECD of SARS-CoV-2 (cryo-EM sample) (SARS-CoV-2, Wuhan-Hu-1); assay: cryo-EM structure
[2] = molecular target: T1, extracellular domain of the SARS-CoV-2 S protein (S-ECD) (SARS-CoV-2, Wuhan-Hu-1); assay: BLI
[3] = molecular target: T1, extracellular domain of the SARS-CoV-2 …; assay: cell-based or functional assay

B1: 4A8 (antibody, V domains shown)
VH: EVQLVESGAEVKKPGASVKVSCKVSGYTLTELSMHWVRQAPGKGLEWMGGFDPEDGETMYAQKFQGRVTMTEDTSTDTAYMELSSLRSEDTAVYYCATSTAVAGTPDLFDYYYGMDVWGQGTTVTVSS
VL: EIVMTQSPLSSPVTLGQPASISCRSSQSLVHSDGNTYLSWLQQRPGQPPRLLIYKISNRFSGVPDRFSGSGAGTDFTLKISRVEAEDVGVYYCTQATQFPYTFGQGTKVDIK
- stoichiometry N [1]: 3
- Kd [2]: < 2.14 nM
- neutralization of live (authentic) SARS-CoV-2 in Vero-E6 cells, EC50 [3]: 0.607 µg/mL
